Experimental data published in US9907791B2, “Ron inhibitors for use in preventing and treating bone loss” (UNIVERSITY OF UTAH RESEARCH FOUNDATION, priority 2014, dated 2018).

Tests used:
PyMT control tumor cells = assay: Intratibial PyMT control tumor-induced osteolysis; type: in vivo, mice
Text: All procedures involving mice and experimental protocols were approved by the Institutional Animal Care and Use Committee (IACUC) of the University of Utah. The RonTK−/− mice which reside on the FVB background, were crossed with NOD.SCID mice for an immune-compromised mouse model. As a control, wild-type FVB mice were also crossed with NOD.SCID mice. The STK−/− mice, which are on a C57BL/6 background, were compared to wild-type C57BL/6 mice as controls. Mice for all experiments were 6 to 8 weeks of age. For intratibial injections, 1×10^5 (PyMTor DU4475) or 3×10^5 (MDA-MB-231) tumor cells were resuspended in 10 μL matrigel and injected into the right tibia of anesthetized female FVB (PyMT) or NOD.SCID mice carrying various alleles of RON. Osteolysis was assessed by X-ray radiography. Dissected hindlimbs from mice sacrificed at the final time point in each experiment were placed in the Kodak In-vivo Multispectral Imaging System FX and exposed to X-ray radiography at 35 kV for 100 sec. Excess tumor tissue was removed from the bones prior to X-ray. Osteolytic lesions were quantified using Image J software (NCBI). All images were compared to the contralateral leg as an internal control.
For in vivo experiments, the OSI-296 inhibitor was dissolved in 40% Trappsol with 0.01 M HCl, and mice were treated at a concentration of 200 mg/kg daily by oral gavage. […]

bone marrow osteoclasts = assay: Osteoclast resorption assay; type: cell-based, mice; conditions: WT osteoclasts, inhibitors 10 μM or muRANK-Fc 10 μg/mL daily day 9 to 12
Description: Bone marrow osteoclasts were generated from 6 to 8 week old WT and RonTK−/− mice. Briefly, bone marrow was isolated from hindlimb bones and plated in α-MEM media containing 10% heat-inactivated fetal bovine serum (FBS, Sigma, St. Louis, Mo.), 100 units/mL penicillin-streptomycin (Hyclone), and 33 ng/mL human macrophage colony-stimulating factor (hM-CSF) (PeproTech, Rocky Hill, N.J.) for 24 hours. Non-adherent cells were collected and frozen for later use. To assess resorption activity, bone marrow precursor cells were thawed and seeded at a density of 1×10^5 cells per well in BioCoat Osteologic slides (BD Biosciences, San Jose, Calif.) in α-MEM media containing 10% FBS and antibiotics. After adhering overnight, media was removed and media containing 33 ng/mL hM-CSF and 9 ng/mL muRANKL (R & D systems, Minneapolis, Minn.) was added. The medium was changed every 3 days depending on acidification, and the assay was terminated as indicated. Recombinant human MSP was prepared and added daily as indicated. Cells were removed with 6% bleach and slides were viewed microscopically using phase-contrast with 20× magnification. Osteolytic resorption area within 5 representative fields was determined using Image J software, experiments were performed in triplicate. Recombinant MSP was prepared as follows (to be described in detail elsewhere): Concentrated, serum-free media from an MCF7 cell line engineered to overexpress MSP was cleaved with kallikrein (Invitrogen, Waltham, Mass.; 4 ng of kallikrein/1 μg of supernatant protein at 37° C. for 2.5 hours). The reaction was diluted to 20 mL with 10 mM sodium phosphate, pH 7.4 and loaded onto a 5 mL HiTrap heparin column (Millipore, Billerica, Mass.) equilibrated with 20 mL of 10 mM sodium phosphate, pH 7.4, at a rate of 1 mL/min. The column was washed with 10 mL of 10 mM sodium phosphate, pH 7.4, at a rate of 1 mL/min. […]

c-Src = assay: Western blot of osteoclast lysates, phospho-Src; type: cell-based, mice
Description: Cells were serum starved (0.5% FBS) for 3 hours prior to lysate collection. Inhibitors were added 1 hour prior to lysis and MSP was added 15 min prior to lysis when indicated. Cells were washed with 1×PBS and harvested in lysis buffer (25 mM Tris-HCl, pH 7.5, 0.42 M NaCl, 1.5 mM MgCl2, 0.5 mM EDTA, 1 mM DTT, 25% sucrose, and 0.1% Triton X-100) plus 100× protease arrest (Bioscience, Bozeman, Mont.) and 100× orthovanadate. Primary antibodies used for immunoblotting include: anti-MSP (Santa Cruz, sc-6090, Dallas, Tex.) at a 1:250 dilution, anti-pan Akt (Cell Signaling, #4691S, Beverly, Mass.) at a 1:1000 dilution, anti-pan Erk (Cell Signaling, #4695, Beverly, Mass.) at a 1:1000 dilution, anti-phospho Akt (Cell Signaling, #9271 L, Beverly, Mass.) at a 1:500 dilution, anti-phospho Erk (Cell Signaling, #4370S, Beverly, Mass.) at a 1:500 dilution, anti-Src (Cell Signaling, #2110, Beverly, Mass.) at a 1:500 dilution, and anti-phospho Src (Y416) (Cell Signaling, #2113, Beverly, Mass.) at a 1:500 dilution. The secondary antibodies used were HRP-conjugated anti-goat IgG (Santa Cruz, Dallas, Tex.) and anti-rabbit IgG (Santa Cruz, Dallas, Tex.). Chemiluminescent signals were detected using Immun-Star HRP (BioRad, Hercules, Calif.).

B1: muRANK-Fc: murine RANKL antagonist (Amgen) (protein)
chain: VTPPCTQERHYEHLGRCCSRCEPGKYLSSKCTPTSDSVCLPCGPDEYLDTWNEEDKCLLHKVCDAGKALVAVDPGNHTAPRRCACTAGYHWNSDCECCRRNTECAPGFGAQHPLQLNKDTVCTPCLLGFFSDVFSSTDKCKPWTNCTLLGKLEAHQGTTESDVVCSSSMTLRRPPKEAQAYLPS
modifications: left off: a dimerising Fc or GST
- osteolysis from PyMT control tumors (no MSP) (PyMT control tumor cells; WT mice, treatment began 3 days post injection, sacrificed 42 days post injection): significantly impaired
- tumor growth of PyMT control bone lesions (PyMT control tumor cells; caliper measurements): no significant effect on tumor growth
- MSP-induced increase in osteoclast resorption (resorption area) (bone marrow osteoclasts): only slightly reduced
- phosphorylated c-Src in WT osteoclasts (c-Src): decrease in phosphorylated c-Src
